Data as given in patent US20120021092A1.

Legend:
Assay in all cases: cell-based or functional assay
[1] = biological target: Bacillus subtilis xylanase variant G13Y/T110A/Y113D/R122D/W164F/Q175L (modifications made to SEQ ID No. 1) (Bacillus subtilis) (UniProt P18429)
[2] = biological target: Bacillus subtilis xylanase variant G13Y/I77Y/K99Y/T104W/T110A/Y113D/R122F/K154R/N159D/Q175L (modifications made to SEQ ID No. 1) (Bacillus subtilis) (UniProt P18429)
[3] = biological target: Bacillus subtilis xylanase variant G13Y/T110A/Y113D/R122D/K154R/N159D/Q175L (modifications made to SEQ ID No. 1) (Bacillus subtilis) (UniProt P18429)
[4] = biological target: Bacillus subtilis xylanase variant D11F/R122D/Q175E (modifications made to SEQ ID No. 1) (Bacillus subtilis) (UniProt P18429)
[5] = biological target: Bacillus subtilis xylanase variant G13Y/T110A/Y113D/R122D/Q175L (modifications made to SEQ ID No. 1) (Bacillus subtilis) (UniProt P18429)
[6] = biological target: Bacillus subtilis xylanase variant G12F/Y113D/R122D/Q175L (modifications made to SEQ ID No. 1) (Bacillus subtilis) (UniProt P18429)
[7] = biological target: Bacillus subtilis xylanase variant G13Y/K99Y/T104W/T110A/Y113D/R122F/K154R/N159D/Q175L (modifications made to SEQ ID No. 1) (Bacillus subtilis) (UniProt P18429)
[8] = biological target: Bacillus subtilis xylanase variant G13Y/G34K/T110A/Y113D/R122D/Q175L (modifications made to SEQ ID No. 1) (Bacillus subtilis) (UniProt P18429)
[9] = biological target: Bacillus subtilis xylanase variant G13Y/T110A/Y113D/R122D/S162D/Q175L (modifications made to SEQ ID No. 1) (Bacillus subtilis) (UniProt P18429)
[10] = biological target: Bacillus subtilis xylanase variant G13Y/K99Y/T104W/T110A/Y113D/N114D/R122F/K154R/N159D/L175K (modifications made to SEQ ID No. 1) (Bacillus subtilis) (UniProt P18429)
[11] = biological target: Bacillus subtilis XynA wildtype xylanase (SEQ ID No. 1), no modifications (Bacillus subtilis) (UniProt P18429)
[12] = biological target: Bacillus subtilis xylanase variant G13F/Y113D/R122D/Q175L (modifications made to SEQ ID No. 1) (Bacillus subtilis) (UniProt P18429)
[13] = biological target: Bacillus subtilis xylanase variant G13Y/K99Y/T104W/T110A/Y113D/R122F/K154R/N159D/Y166F/Q175L (modifications made to SEQ ID No. 1) (Bacillus subtilis) (UniProt P18429)
[14] = biological target: Bacillus subtilis xylanase variant G13Y/T110A/Y113D/R122D/S162E/Q175L (modifications made to SEQ ID No. 1) (Bacillus subtilis) (UniProt P18429)
[15] = biological target: Bacillus subtilis xylanase variant D11F/R122D/T110A/Y113A (modifications made to SEQ ID No. 1) (Bacillus subtilis) (UniProt P18429)
[16] = biological target: Bacillus subtilis xylanase variant G13Y/K99Y/T104W/T110A/Y113D/R122F/K154R/N159D/Q175K (modifications made to SEQ ID No. 1) (Bacillus subtilis) (UniProt P18429)
[17] = biological target: Bacillus subtilis xylanase variant G13Y/Y113D/R122D/Q175L (modifications made to SEQ ID No. 1) (Bacillus subtilis) (UniProt P18429)
[18] = biological target: Bacillus subtilis xylanase variant G13Y/I15Y/Y113D/R122D/Q175L (modifications made to SEQ ID No. 1) (Bacillus subtilis) (UniProt P18429)
[19] = biological target: Bacillus subtilis xylanase variant G13Y/I77V/K99Y/T104W/T110A/Y113D/R122F/K154R/N159D/Q175L (modifications made to SEQ ID No. 1) (Bacillus subtilis) (UniProt P18429)
[20] = biological target: Bacillus subtilis xylanase variant G13Y/I77M/K99Y/T104W/T110A/Y113D/R122F/K154R/N159D/Q175L (modifications made to SEQ ID No. 1) (Bacillus subtilis) (UniProt P18429)
[21] = biological target: Bacillus subtilis xylanase variant G13Y/K99Y/T104W/T110A/Y113D/N114F/R122F/K154R/N159D/Q175L (modifications made to SEQ ID No. 1) (Bacillus subtilis) (UniProt P18429)
[22] = biological target: Bacillus subtilis xylanase variant D11F/R122D/Q175Y/S179Y (modifications made to SEQ ID No. 1) (Bacillus subtilis) (UniProt P18429)
[23] = biological target: Bacillus subtilis xylanase variant D11F/R122D/T110A (modifications made to SEQ ID No. 1) (Bacillus subtilis) (UniProt P18429)
[24] = biological target: Bacillus subtilis xylanase variant G13Y/V81I/K99Y/T104W/T110A/Y113D/R122F/K154R/N159D/Q175L (modifications made to SEQ ID No. 1) (Bacillus subtilis) (UniProt P18429)
[25] = biological target: Bacillus subtilis xylanase variant G13Y/K99Y/T104W/Y113D/R122D/Q175L (modifications made to SEQ ID No. 1) (Bacillus subtilis) (UniProt P18429)
[26] = biological target: Bacillus subtilis xylanase variant G13Y/K99Y/T104W/T110A/Y113D/I118V/R122F/K154R/N159D/Q175L (modifications made to SEQ ID No. 1) (Bacillus subtilis) (UniProt P18429)
[27] = biological target: Bacillus subtilis xylanase variant G13Y/K99Y/T104W/T110A/Y113D/N114Y/R122F/K154R/N159D/L175K (modifications made to SEQ ID No. 1) (Bacillus subtilis) (UniProt P18429)
[28] = biological target: Bacillus subtilis xylanase variant G13Y/T110A/Y113D/R122F/Q175L (modifications made to SEQ ID No. 1) (Bacillus subtilis) (UniProt P18429)
[29] = biological target: Bacillus subtilis xylanase variant D11F/R122D/Y113A (modifications made to SEQ ID No. 1) (Bacillus subtilis) (UniProt P18429)
[30] = biological target: Bacillus subtilis xylanase variant BS3 (wildtype with D11F/R122D mutations) (Bacillus subtilis) (UniProt P18429)
[31] = biological target: Bacillus subtilis xylanase variant G13Y/Y113D/R122F/Q175L (modifications made to SEQ ID No. 1) (Bacillus subtilis) (UniProt P18429)
[32] = biological target: Bacillus subtilis xylanase variant G13Y/K99Y/T104W/T110A/Y113D/N114D/R122F/K154R/N159D/Q175L (modifications made to SEQ ID No. 1) (Bacillus subtilis) (UniProt P18429)
[33] = biological target: Bacillus subtilis xylanase variant G13Y/K99Y/T104W/T110A/Y113D/N114Y/R122F/K154R/N159D/Q175L (modifications made to SEQ ID No. 1) (Bacillus subtilis) (UniProt P18429)
[34] = biological target: Bacillus subtilis xylanase variant G13Y/I77S/K99Y/T104W/T110A/Y113D/R122F/K154R/N159D/Q175L (modifications made to SEQ ID No. 1) (Bacillus subtilis) (UniProt P18429)
[35] = biological target: Bacillus subtilis xylanase variant G13Y/I77L/K99Y/T104W/T110A/Y113D/R122F/K154R/N159D/Q175L (modifications made to SEQ ID No. 1) (Bacillus subtilis) (UniProt P18429)

Chain of crude xylanase inhibitor preparation from wheat (Triticum aestivum) flour, containing both TAXI and XIP (main, form in doubt): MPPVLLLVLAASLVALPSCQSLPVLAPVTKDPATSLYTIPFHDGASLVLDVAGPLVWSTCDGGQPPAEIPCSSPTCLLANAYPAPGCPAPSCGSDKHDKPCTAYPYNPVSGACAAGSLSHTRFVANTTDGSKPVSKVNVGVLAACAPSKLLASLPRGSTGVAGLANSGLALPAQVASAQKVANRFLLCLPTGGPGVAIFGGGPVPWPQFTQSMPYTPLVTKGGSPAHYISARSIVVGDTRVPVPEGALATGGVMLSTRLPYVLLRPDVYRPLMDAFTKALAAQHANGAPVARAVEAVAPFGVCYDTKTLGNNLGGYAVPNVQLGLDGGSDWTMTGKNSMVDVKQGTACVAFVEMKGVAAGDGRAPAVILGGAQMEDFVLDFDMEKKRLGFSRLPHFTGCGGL

Substance: crude xylanase inhibitor preparation from wheat (Triticum aestivum) flour, containing both TAXI and XIP
- % Activity @ 50 XIU/ml (residual xylanase activity) [1]: 29%
- % Activity @ 50 XIU/ml (residual xylanase activity) [2]: 37%
- % Activity @ 50 XIU/ml (residual xylanase activity) [3]: 32%
- % Activity @ 5.6 XIU/ml (residual xylanase activity) [4]: 100%
- % Activity @ 33.5 XIU/ml (residual xylanase activity) [5]: 50%
- % Activity @ 5.6 XIU/ml (residual xylanase activity) [6]: 100%
- % Activity @ 50 XIU/ml (residual xylanase activity) [7]: 64%
- % Activity @ 50 XIU/ml (residual xylanase activity) [8]: 97%
- % Activity @ 50 XIU/ml (residual xylanase activity) [9]: 40%
- % Activity @ 50 XIU/ml (residual xylanase activity) [10]: 79%
- % Activity @ 5.6 XIU/ml (residual xylanase activity) [11]: 29%
- % Activity @ 5.6 XIU/ml (residual xylanase activity) [12]: 100%
- % Activity @ 33.5 XIU/ml (residual xylanase activity) [12]: 90%
- % Activity @ 50 XIU/ml (residual xylanase activity) [13]: 68%
- % Activity @ 50 XIU/ml (residual xylanase activity) [14]: 44%
- % Activity @ 5.6 XIU/ml (residual xylanase activity) [15]: 99%
- % Activity @ 50 XIU/ml (residual xylanase activity) [16]: 72%
- % Activity @ 33.5 XIU/ml (residual xylanase activity) [17]: 86%
- % Activity @ 33.5 XIU/ml (residual xylanase activity) [18]: 76%
- % Activity @ 50 XIU/ml (residual xylanase activity) [19]: 45%
- % Activity @ 50 XIU/ml (residual xylanase activity) [20]: 46%
- % Activity @ 50 XIU/ml (residual xylanase activity) [21]: 79%
- % Activity @ 5.6 XIU/ml (residual xylanase activity) [22]: 100%
- % Activity @ 5.6 XIU/ml (residual xylanase activity) [23]: 98%
- % Activity @ 33.5 XIU/ml (residual xylanase activity) [23]: 100%
- % Activity @ 50 XIU/ml (residual xylanase activity) [24]: 46%
- % Activity @ 33.5 XIU/ml (residual xylanase activity) [25]: 80%
- % Activity @ 50 XIU/ml (residual xylanase activity) [26]: 79%
- % Activity @ 50 XIU/ml (residual xylanase activity) [27]: 84%
- % Activity @ 50 XIU/ml (residual xylanase activity) [28]: 65%
- % Activity @ 5.6 XIU/ml (residual xylanase activity) [29]: 100%
- % Activity @ 5.6 XIU/ml (residual xylanase activity) [30]: 100%
- % Activity @ 33.5 XIU/ml (residual xylanase activity) [30]: 100%
- % Activity @ 50 XIU/ml (residual xylanase activity) [30]: 95%
- % Activity @ 50 XIU/ml (residual xylanase activity) [31]: 90%
- % Activity @ 50 XIU/ml (residual xylanase activity) [32]: 79%
- % Activity @ 50 XIU/ml (residual xylanase activity) [33]: 78%
- % Activity @ 50 XIU/ml (residual xylanase activity) [34]: 20%
- % Activity @ 50 XIU/ml (residual xylanase activity) [35]: 75%
